B1: [Ala^1,Thr^2,Glu^33,Glu^53] desulfatohirudin (protein)
chain: ATYTDCTESGQNLCLCEGSNVCGQGNKCILGSDGEKNQCVTGEGTPKPQSHNEGDFEEIPEEYLQ
B2: [Ala^1,Thr^2,Glu^53] desulfatohirudin (protein)
chain: B1 chain
B3: [Ala^1,Thr^2,Ala^54] desulfatohirudin (protein)
chain: B1 chain with E53D, G54A
B4: [Ala^1,Thr^2,Glu^33,Gln^52,Glu^53,Glu^55]-desulfatohirudin (protein)
chain: B1 chain with D33E, N52Q, D55E
B5: [Ala^1,Thr^2,Glu^33,Gln^52,Glu^53,Ala^54]-desulfatohirudin (protein)
chain: B1 chain with D33E, N52Q, G54A
B6: [Ala^1,Thr^2,Glu^33,Ala^54] desulfatohirudin (protein)
chain: B1 chain with D33E, E53D, G54A
B7: [Ala^1,Thr^2,Glu^33] desulfatohirudin (protein)
chain: B1 chain with D33E, E53D
B8: [Ala^1,Thr^2,Gln^52,Glu^53,Ala^54] desulfatohirudin (protein)
chain: B1 chain with N52Q, G54A
B9: [Ala^1,Thr^2,Gln^52,Glu^53,Glu^55] desulfatohirudin (protein)
chain: B1 chain with N52Q, D55E

Positions count from the first letter of the chain named.

This note sets out measurements from patent US5286714.

In this test the target is thrombin. As to the kind of experiment: Ki(app.) from kinetics of thrombin inhibition with chromogenic substrate D-HHT-Gly-Arg-pNA (Stone and Hofsteenge), 25° C.
[Leu^1,Thr^2] desulfatohirudin gave a Ki of 0.14 nM.
Then [Ile^1,Thr^2] desulfatohirudin, with 0.61 nM; and [Ala^1,Thr^2] desulfatohirudin, with 0.2 nM; and B1, with 0.37 nM.
The molecule B2 yielded a Ki of 0.38 nM.
Then B3, with 0.27 nM.
Molecule B4 showed a Ki of 0.3 nM.
B5 showed a Ki of 0.31 nM.
For the molecule B6, the Ki turned out to be 0.35 nM.
As for B7, the figure is 0.16 nM.
B8 came in with a Ki of 0.22 nM.
Then B9, with 0.19 nM.
